The target of data set [1] is PorX. Put plainly: small-angle X-ray scattering in solution. The conditions noted are these: reference: PorX without BeF3; sites D58.
In data set [2] the target is PorX. In words: SEC-MALLS absolute molecular weight. The following applies: reference: PorX with MgCl2 alone; sites D58.
The target of data set [3] is PorX (wild type, non-phosphorylated) (Porphyromonas gingivalis W83) (UniProt B2RJJ3). In words: SAXS.
Data set [4] has the same target. Put plainly: SAXS. This is another data set of the same source.
In data set [5] the target is Selenomethionine variant of PorX, phosphorylated with acetyl phosphate (Porphyromonas gingivalis W83) (UniProt B2RJJ3). Put plainly: SEC-MALS.
The data set “crystal structure” concerns the molecule itself. In words: crystal structure.
Data set [6] concerns the molecule itself. Put plainly: SEC.
Data set [7] deals with the molecule itself. In words: SEC. This is another data set of the same source. In general terms: Size exclusion chromatography separates by hydrodynamic size, large species first.

Like-named read-outs stand apart in the source and are kept apart here.

Consider PorX PorX with BeF3 and MgCl2, for which the “other: radius of gyration” value with PorX [1] is recorded as “gained; reference 29.6”.

With “PorX PorX pre-incubated with AcP and MgCl2”, in the data set with PorX [2], the “other: MALLS molecular weight” value is recorded as “gained; reference 70.2”.

Take “PorX (wild type, non-phosphorylated) (from UniProt B2RJJ3 1-518) (natural protein)”: the stoichiometry N in data set [3] and in data set [4] was 2 each time. On to “Selenomethionine variant of PorX, phosphorylated with acetyl phosphate (from UniProt B2RJJ3 1-518) (natural protein)”, for which, in data set [5], the stoichiometry N (commonly the number of molecules, sites or subunits per partner or assembly) was 2.

B1: PorX T272A, selenomethionine variant (T272A-pGpG crystal) (natural protein, Porphyromonas gingivalis W83)
chain: MEKNMRPYTVLWADDEIDLLKPHILFLEQKGYQVTPVLSGNDAIEALQNNDFDIVFLDENMPGIGGLDALQKIKELKPYTPVVMITKSEEEHIMTQAIGGKIADYLIKPVNPNQLLLSLKKNLQQHSIISETTNTNYRQEFVQLGAQMSGKLSFEEWKELYRRIVFWEIELEQADRQMGELLEMQKQEANRLFARFVTQNYREWIAKPDTRPTMSPDLFKQKVFPLLDNGEKVFFILIDNFRQDQWESVKSMLSEFYTFEEDMYLSILPTAAQYARNAIFSGLMPLQIEKMFPDLWVDEESEEGKNLNEEPMIRTLIERYRKHYSFSYNKVYETKFGERLLGQIRSLSQNQLNVIVLNFVDMMSHARTDSKMIRELASNEAAYRSLTKSWFKHSTTYNLFRSIAEMGYKVVLTTDHGTIQVKNPVKVIGDRSTNTNLRYKIGKNLDYNPKEVFEIKDPASVGLPHNNLSDKFIFTKEDDFFAYPNNYNYYVQYYRNTFQHGGISLEEMLVPVITMQPK
modifications: selenomethionine
As to B1, the binding result in the data set “crystal structure” is “binds”.

B2: PorX T272A incubated with acetyl phosphate (phosphorylated) (natural protein, Porphyromonas gingivalis W83)
chain: B1 chain
modifications: phosphorylated with acetyl phosphate (attenuated against the wild type)
Regarding B2, in “SEC [6]”, the binding result was “binds”.

B3: PorX T272A (natural protein, Porphyromonas gingivalis W83)
chain: B1 chain
As for B3, in the data set “SEC [7]”, the binding result is given as “binds”.

These data come from PMC9757075 (Nucleic Acids Research, 2022).
